Target: the molecule itself
Assay: SEC; purified recombinant His-tagged ASK13; Superose 6 column by the legend; fractions confirmed by dot blot with an anti-His antibody

B1: Recombinant His-tagged ASK13 (natural protein, Arabidopsis thaliana, UniProt Q9M1X5 1-154, looked up)
chain: MSKMVMLLSSDGESFQVEEAVAVQSQTIAHMIEDDCVANGVPIANVTGVILSKVIEYCKKHVVSDSPTEESKDELKKWDAEFMKALEQSSTLFDVMLAANYLNIKDLLDLGCQTVADMITGKKPDEIRALLGIENDFTPEEEEEIRKENQWAFE
notes: ASK13 (SKP1-like protein13), Arabidopsis thaliana, At3g60010; sub-cloned into pET23d; Found as monomer and dimer; also called recombinant ASK13; his-tagged ASK13 protein; not shown: His tag, C-terminal, kept
stoichiometry N: 2
